Drawing on publication PMC3118792, this text covers response (RU) for two substances.

The target in the experiment is mixture of human tenascin and human fibronectin matrix proteins (human). Kind of experiment: SPR; BIAcore X, CM4 chip with an amine-coupled mixture of human tenascin and human fibronectin (4100 RU); samples injected at 1 µM in HBS (10 mM HEPES, 150 mM NaCl, 3 mM EDTA, 0.05% P20, pH 7.4), 5 µl/minute, 25°C, 1 minute, then 1 minute dissociation; reference cell subtracted.

For AvidinOX (from UniProt P02701 25-152), the response (RU) was > 2000 RU. For the substance “avidin (from UniProt P02701 25-152) (natural protein)”, the response (RU) stood at 30 RU.
